B1: Azoarcus group I ribozyme (parent)
chain: GUGCCUUGCGCCGGGAAACCACGCAAGGGAUGGUGUCAAAUUCGGCGAAACCUAAGCGCCCGCCCGGGCGUAUGGCAACGCCGAGCCAAGCUUCGGCGCCUGCGCCGAUGAAGGUGUAGAGACUAGACGGCACCCACCUAAGGCAAACGCUAUGGUGAAGGCAUAGUCCAGGGAGUGGCGAAAGUCACACAAACCGG

The text below walks through data of the RNAGym collection of RNA variant scans (doi:10.1093/molbev/msab373).

In this series the parent is B1. Description: reverse-splicing fitness (ratio to wild type); higher = more active; in vitro selection; Mg2+ level not given. The essentials:
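An in vitro group I ribozyme library with randomized positions was T7-transcribed and gel-purified. In triplicate, 10 pmol RNA in EPPS pH 7.5 was reacted with 50 pmoles of a 30-nt RNA substrate for 1 h at 37 °C across several added MgCl2 levels (1–48 mM), then stopped with EDTA. Products were reverse transcribed from a substrate-complementary primer, PCR-amplified and sequenced (HiSeq 4000). Fitness is a variant's read proportion after selection over that before, normalised to wild type.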
On to GUGCCUUGCGCCGGGAAACCACGCAAGGGAUGGUGUCAAAUUCGGCGAAACCUAAGCGCCCGCCCGGGCGUAUGGCAACGCGGAGCCAAGCUUCGGCGCCUGCGCCGAUGCAGGUGUAGAGACUAGACGGCACCCACCUAAGGCCAACGGUAUGGUGAAGGCAUAGUCCAGGGAGUGGCGAAAGUCACACAAACCGG [C82G A111C A145C C150G], for which the reverse-splicing fitness is 0.0271.
For GUGCCUUGCGCCGGGAAACCACGCAAGGGAUGGUGUCAAAUUCGGCGAAACCUAAGCGCCCGCCCGGGCGUAUGGCAACGCGGAGCCAAGCUUCGGCGCCUGCGCCGAUGCAGGUGUAGAGACUAGACGGCACCCACCUAAGGCCAACGGUAUGGUGAAGGCAUAGUCGAGGGAGUGGCGAAAGUCACACAAACCGG [C82G A111C A145C C150G C169G], the reverse-splicing fitness is 0.00675.
As for GUGCCUUGCGCCGGGAAACCACGCAAGGGAUGGUGUCAAAUUCGGCGAAACCUAAGCGCCCGCCCGGGCGUAUGGCAACGCGGAGCCAAGCUUCGGCGCCUGCGCCGAUGCAGGUGUAGAGACUAGACGGCACCCACCUAAGGCCAACGGUAUGGUGAAGGCAUAGUCUAGGGAGUGGCGAAAGUCACACAAACCGG [C82G A111C A145C C150G C169U], the figure is 0.00892.
In the case of GUGCCUUGCGCCGGGAAACCACGCAAGGGAUGGUGUCAAAUUCGGCGAAACCUAAGCGCCCGCCCGGGCGUAUGGCAACGCGGAGCCAAGCUUCGGCGCCUGCGCCGAUGCAGGUGUAGAGACUAGACGGCACCCACCUAAGGCCAACGGUAUGGUGAAGGCAUAGUCAAGGGAGUGGCGAAAGUCACACAAACCGG [C82G A111C A145C C150G C169A], the reverse-splicing fitness was found to be 0.00941.
As for GUGCCUUGCGCCGGGAAACCACGCAAGGGAUGGUGUCAAAUUCGGCGAAACCUAAGCGCCCGCCCGGGCGUAUGGCAACGCGGAGCCAAGCUUCGGCGCCUGCGCCGAUGCAGGUGUAGAGACUAGACGGCACCCACCUAAGGCCAACGAUAUGGUGAAGGCAUAGUCCAGGGAGCGGCGAAAGUCACACAAACCGG [C82G A111C A145C C150A U176C], the figure is 0.0188.
As for GUGCCUUGCGCCGGGAAACCACGCAAGGGAUGGUGUCAAAUUCGGCGAAACCUAAGCGCCCGCCCGGGCGUAUGGCAACGCGGAGCCAAGCUUCGGCGCCUGCGCCGAUGCAGGUGUAGAGACUAGACGGCACCCACCUAAGGCCAACGAUAUGGUGAAGGCAUAGUCCAGGGAGGGGCGAAAGUCACACAAACCGG [C82G A111C A145C C150A U176G], the reverse-splicing fitness is 0.00879.
As for GUGCCUUGCGCCGGGAAACCACGCAAGGGAUGGUGUCAAAUUCGGCGAAACCUAAGCGCCCGCCCGGGCGUAUGGCAACGCGGAGCCAAGCUUCGGCGCCUGCGCCGAUGCAGGUGUAGAGACUAGACGGCACCCACCUAAGGCCAACGAUAUGGUGAAGGCAUAGUCCAGGGAGAGGCGAAAGUCACACAAACCGG [C82G A111C A145C C150A U176A], the figure is 0.0144; as for GUGCCUUGCGCCGGGAAACCACGCAAGGGAUGGUGUCAAAUUCGGCGAAACCUAAGCGCCCGCCCGGGCGUAUGGCAACGCGGAGCCAAGCUUCGGCGCCUGCGCCGAUGCAGGUGUAGAGACUAGACGGCACCCACCUAAGGCCAACGGUAUGGUGAAGGCAUAGUCGAGGGAGCGGCGAAAGUCACACAAACCGG [C82G A111C A145C C150G C169G U176C], 0.0101; as for GUGCCUUGCGCCGGGAAACCACGCAAGGGAUGGUGUCAAAUUCGGCGAAACCUAAGCGCCCGCCCGGGCGUAUGGCAACGCGGAGCCAAGCUUCGGCGCCUGCGCCGAUGCAGGUGUAGAGACUAGACGGCACCCACCUAAGGCCAACGGUAUGGUGAAGGCAUAGUCGAGGGAGGGGCGAAAGUCACACAAACCGG [C82G A111C A145C C150G C169G U176G], 0.00664.
As for GUGCCUUGCGCCGGGAAACCACGCAAGGGAUGGUGUCAAAUUCGGCGAAACCUAAGCGCCCGCCCGGGCGUAUGGCAACGCGGAGCCAAGCUUCGGCGCCUGCGCCGAUGCAGGUGUAGAGACUAGACGGCACCCACCUAAGGCCAACGGUAUGGUGAAGGCAUAGUCGAGGGAGAGGCGAAAGUCACACAAACCGG [C82G A111C A145C C150G C169G U176A], the figure is 0.00893.
Next, GUGCCUUGCGCCGGGAAACCACGCAAGGGAUGGUGUCAAAUUCGGCGAAACCUAAGCGCCCGCCCGGGCGUAUGGCAACGCGGAGCCAAGCUUCGGCGCCUGCGCCGAUGCAGGUGUAGAGACUAGACGGCACCCACCUAAGGCCAACGGUAUGGUGAAGGCAUAGUCAAGGGAGGGGCGAAAGUCACACAAACCGG [C82G A111C A145C C150G C169A U176G]: 0.00732; GUGCCUUGCGCCGGGAAACCACGCAAGGGAUGGUGUCAAAUUCGGCGAAACCUAAGCGCCCGCCCGGGCGUAUGGCAACGCGGAGCCAAGCUUCGGCGCCUGCGCCGAUGCAGGUGUAGAGACUAGACGGCACCCACCUAAGGCCAACGGUAUGGUGAAGGCAUAGUCAAGGGAGCGGCGAAAGUCACACAAACCGG [C82G A111C A145C C150G C169A U176C]: 0.00828; GUGCCUUGCGCCGGGAAACCACGCAAGGGAUGGUGUCAAAUUCGGCGAAACCUAAGCGCCCGCCCGGGCGUAUGGCAACGCGGAGCCAAGCUUCGGCGCCUGCGCCGAUGCAGGUGUAGAGACUAGACGGCACCCACCUAAGGCCAACGGUAUGGUGAAGGCAUAGUCAAGGGAGAGGCGAAAGUCACACAAACCGG [C82G A111C A145C C150G C169A U176A]: 0.00825.
On to GUGCCUUGCGCCGGGAAACCACGCAAGGGAUGGUGUCAAAUUCGGCGAAACCUAAGCGCCCGCCCGGGCGUAUGGCAACGCGGAGCCAAGCUUCGGCGCCUGCGCCGAUGCAGGUGUAGAGACUAGACGGCACCCACCUAAGGCCAACGGUAUGGUGAAGGCAUAGUCUAGGGAGCGGCGAAAGUCACACAAACCGG [C82G A111C A145C C150G C169U U176C], for which the reverse-splicing fitness was 0.0102.
As for GUGCCUUGCGCCGGGAAACCACGCAAGGGAUGGUGUCAAAUUCGGCGAAACCUAAGCGCCCGCCCGGGCGUAUGGCAACGCGGAGCCAAGCUUCGGCGCCUGCGCCGAUGCAGGUGUAGAGACUAGACGGCACCCACCUAAGGCCAACGGUAUGGUGAAGGCAUAGUCUAGGGAGAGGCGAAAGUCACACAAACCGG [C82G A111C A145C C150G C169U U176A], the figure is 0.00717.
